Legend:
[1] = molecular target: T1, MLO-Y4 cell surface proteins (Mus musculus, UniProt Q8R1I1); assay: Crosslinking/co-immunoprecipitation/mass spectrometry (TMT quantitative proteomics) to identify irisin receptors; assay type: binding; conditions: co-precipitated protein Uqcr10 (QCR9_MOUSE)
T1 construct: endogenous in cells; host or cells: MLO-Y4
T1 sequence (Q8R1I1 1-64): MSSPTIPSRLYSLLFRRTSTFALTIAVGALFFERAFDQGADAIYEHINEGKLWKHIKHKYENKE
Summary of the method: (§1)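 Mouse MLO-Y4 cells were switched to serum-free FreeStyle medium for 4 h, chilled, then exposed to 10 nM His-tagged irisin (or adipsin as control) for 20 min. Cells were crosslinked with 1.5 mM DTSSP (30 min, ice), and bound proteins were pulled down on Ni-NTA and eluted with 250 mM imidazole. Eluates were separated by SDS-PAGE, trypsin-digested in gel, TMT 6-plex labelled and quantified by MS3-based LC-MS/MS on an Orbitrap Fusion Lumos.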

[2] = molecular target: T2, MLO-Y4 cell surface proteins (Mus musculus, UniProt P70388); assay: as above; assay type: binding; conditions: co-precipitated protein Rad50 (RAD50_MOUSE)
T2 construct: endogenous in cells; host or cells: MLO-Y4
T2 sequence (P70388 1-1312): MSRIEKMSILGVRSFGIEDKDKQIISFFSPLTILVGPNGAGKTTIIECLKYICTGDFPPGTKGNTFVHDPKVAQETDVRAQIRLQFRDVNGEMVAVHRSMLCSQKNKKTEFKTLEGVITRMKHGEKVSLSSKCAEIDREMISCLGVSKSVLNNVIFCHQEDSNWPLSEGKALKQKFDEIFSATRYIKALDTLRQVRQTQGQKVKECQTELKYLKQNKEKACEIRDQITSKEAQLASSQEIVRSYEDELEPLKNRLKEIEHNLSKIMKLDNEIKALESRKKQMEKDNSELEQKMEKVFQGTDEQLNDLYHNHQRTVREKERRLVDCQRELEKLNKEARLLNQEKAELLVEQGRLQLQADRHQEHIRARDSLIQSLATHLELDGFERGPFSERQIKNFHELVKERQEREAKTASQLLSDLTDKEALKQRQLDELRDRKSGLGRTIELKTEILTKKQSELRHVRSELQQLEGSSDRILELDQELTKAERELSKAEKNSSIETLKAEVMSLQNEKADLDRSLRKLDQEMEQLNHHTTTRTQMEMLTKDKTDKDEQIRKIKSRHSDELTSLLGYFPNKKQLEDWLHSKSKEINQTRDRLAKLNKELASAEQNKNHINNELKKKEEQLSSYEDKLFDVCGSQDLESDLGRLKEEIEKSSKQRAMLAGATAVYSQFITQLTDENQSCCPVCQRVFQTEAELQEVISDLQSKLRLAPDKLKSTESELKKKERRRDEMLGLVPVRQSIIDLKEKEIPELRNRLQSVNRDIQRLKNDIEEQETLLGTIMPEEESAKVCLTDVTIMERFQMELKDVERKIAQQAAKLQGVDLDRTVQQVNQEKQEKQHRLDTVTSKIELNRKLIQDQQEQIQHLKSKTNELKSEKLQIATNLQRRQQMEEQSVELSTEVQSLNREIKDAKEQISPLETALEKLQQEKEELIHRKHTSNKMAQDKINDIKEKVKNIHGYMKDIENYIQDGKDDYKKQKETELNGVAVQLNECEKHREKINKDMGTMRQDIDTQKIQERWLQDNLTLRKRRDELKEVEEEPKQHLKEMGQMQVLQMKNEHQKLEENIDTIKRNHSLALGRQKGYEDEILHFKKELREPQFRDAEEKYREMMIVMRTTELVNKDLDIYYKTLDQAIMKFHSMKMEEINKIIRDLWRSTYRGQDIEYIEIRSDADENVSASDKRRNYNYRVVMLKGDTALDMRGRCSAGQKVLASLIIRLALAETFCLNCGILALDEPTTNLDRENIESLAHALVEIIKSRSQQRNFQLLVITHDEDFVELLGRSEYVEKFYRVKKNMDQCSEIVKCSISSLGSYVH
Summary of the method: as §1

TMT signal-to-noise ratio [1]: 243.198 | TMT signal-to-noise ratio [2]: 422.246
Substance: adipsin

Source: US20210063414A1, “METHODS FOR PREVENTING AND/OR TREATING BONE LOSS CONDITIONS BY MODULATING IRISIN” (Dana-Farber Cancer Institute, Inc., priority 2018, published 2021)
